Test [1] addresses 人源PGI蛋白 (human pepsinogen I from human gastric mucosa, Lee Biosolutions, cat. 440-50) (human) (UniProt P0DJD8). The test is described as follows: indirect ELISA, human-derived PGI coated at 2 ug/mL, culture supernatant diluted 50-fold. Background: In an ELISA, binding on a coated surface is turned into a signal by an enzyme label.
In test [2] the target is T1, 重组PGI蛋白 (recombinant pepsinogen I protein, expressed in HEK293 cells) (Homo sapiens (Human), UniProt P0DJD9 16-388, limits assumed).
T1 construct: Immunogen and ELISA coating antigen; also called PGI重组蛋白; 重组蛋白
The test is described as follows: indirect ELISA screen of hybridoma supernatants on coated recombinant PGI.

Where a chain is given by its changes, count along the chain named.

UniProt P0DJD8, sequence (P0DJD8 16-388): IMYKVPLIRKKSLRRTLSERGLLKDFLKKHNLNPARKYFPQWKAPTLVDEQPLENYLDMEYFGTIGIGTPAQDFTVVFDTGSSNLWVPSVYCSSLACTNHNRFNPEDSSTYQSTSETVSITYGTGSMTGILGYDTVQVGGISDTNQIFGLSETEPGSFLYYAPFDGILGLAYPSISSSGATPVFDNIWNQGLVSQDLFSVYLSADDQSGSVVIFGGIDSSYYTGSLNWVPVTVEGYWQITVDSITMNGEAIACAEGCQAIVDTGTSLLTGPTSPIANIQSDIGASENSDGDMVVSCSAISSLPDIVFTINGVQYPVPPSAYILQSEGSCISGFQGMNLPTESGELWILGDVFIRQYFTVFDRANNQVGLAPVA
T1 sequence (P0DJD9 other isoform, or with tags, fused parts or gaps limits assumed): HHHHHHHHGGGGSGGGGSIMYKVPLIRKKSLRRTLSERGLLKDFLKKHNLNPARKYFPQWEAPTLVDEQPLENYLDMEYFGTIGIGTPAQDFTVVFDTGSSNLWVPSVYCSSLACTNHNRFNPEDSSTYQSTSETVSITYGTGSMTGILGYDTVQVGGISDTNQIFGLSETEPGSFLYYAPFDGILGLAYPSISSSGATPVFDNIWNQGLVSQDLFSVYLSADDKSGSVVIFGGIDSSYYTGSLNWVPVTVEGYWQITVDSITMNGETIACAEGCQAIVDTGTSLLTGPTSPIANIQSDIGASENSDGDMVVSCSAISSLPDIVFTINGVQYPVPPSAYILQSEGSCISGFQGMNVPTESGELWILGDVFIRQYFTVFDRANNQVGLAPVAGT

B1: 鼠单克隆抗体36A2 (antibody, V domains shown)
VH: EIQLQQSGPELVKPGASVKVSCKASGYSFTDYNIYWVKQGHGESLEWIGYIDPYNGDTDYNQKFKDRSTLTVDKSSNTAFMHLNSLTSEDSAVYYCARSRNYYGSSFAYWGQGTLVTVSA
VL: DVLMTQTPLSLPVSLGDQASISCRSSQAIVHGNGNTYLEWSLQKPVHSPKLLIFKVSNRFSGVPDRFSGSGSGTDFTLKISRVEAEDLGVYYCFQGSHVPPTFGGGTKLEIK
B1 gave an OD450 in test [1] of 2.04 OD450.

B2: 鼠单克隆抗体3D9 (antibody, V domains shown)
VH: QVQLQQSGAELAKPGAAVKMSCKASGYTFTSHWMHWVNQRPGQGLEWIGYINPTTGYSEYNQKFKDKATMTADKSSSTAYMHLRSLTSEDSAVYYCARGAYYYGSSRFDYWGQGTTLTVSS
VL: B1 VL with A28T, G32T, S41Y, V46G, H47Q, F54Y, P101W
notes: Mouse monoclonal antibody from a hybridoma; also called 第一单抗
Turning to B2, the binding result in test [2] was “binds”. Further, in test [1], the OD450 was 1.87 OD450.

(Values after patent CN114835815A (NINGBO SAIPO BIOTECHNOLOGY CO LTD, dated 2022).)
